Read-outs that look alike come from different tables or passages of the source.
Legend:
[1] = molecular target: T1, 4H2713-AA; assay: two-hybrid library CCmax;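 note: natural log of median RNA to DNA barcode read ratio; higher means stronger binding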
T1 chain: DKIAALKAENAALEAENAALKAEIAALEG

[2] = molecular target: T2, 4H2742-AA; assay: two-hybrid library CCmax; conditions: mean of both orientations;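 note: natural log of median RNA to DNA barcode read ratio; higher means stronger binding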
T2 chain: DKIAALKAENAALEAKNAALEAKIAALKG

[3] = molecular target: T3, 4H2948-AA; assay: two-hybrid library CCmax; conditions: mean of both orientations;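 note: natural log of median RNA to DNA barcode read ratio; higher means stronger binding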
T3 chain: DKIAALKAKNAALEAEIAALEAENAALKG

[4] = molecular target: T4, 4H2991-AA; assay: two-hybrid library CCmax; conditions: mean of both orientations;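 note: natural log of median RNA to DNA barcode read ratio; higher means stronger binding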
T4 chain: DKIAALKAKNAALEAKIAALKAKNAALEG

[5] = molecular target: T5, 4H3029-AA; assay: two-hybrid library CCmax; conditions: mean of both orientations;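 note: natural log of median RNA to DNA barcode read ratio; higher means stronger binding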
T5 chain: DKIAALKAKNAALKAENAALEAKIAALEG

[6] = molecular target: T6, 4H3066-AA; assay: two-hybrid library CCmax; conditions: mean of both orientations;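 note: natural log of median RNA to DNA barcode read ratio; higher means stronger binding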
T6 chain: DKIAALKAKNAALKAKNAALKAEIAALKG

[7] = molecular target: T7, 4H3102-AA; assay: two-hybrid library CCmax; conditions: mean of both orientations
T7 chain: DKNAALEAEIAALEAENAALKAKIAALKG

[8] = molecular target: T8, 4H3121-AA; assay: two-hybrid library CCmax; conditions: mean of both orientations
T8 chain: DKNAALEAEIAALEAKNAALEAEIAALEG

[9] = molecular target: T9, 4H3417-AA; assay: two-hybrid library CCmax; conditions: mean of both orientations
T9 chain: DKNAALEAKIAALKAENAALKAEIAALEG

[10] = molecular target: T10, 4H3446-AA; assay: two-hybrid library CCmax; conditions: mean of both orientations
T10 chain: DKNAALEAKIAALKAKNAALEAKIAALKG

[11] = molecular target: T11, 4H3591-AA; assay: two-hybrid library CCmax; conditions: mean of both orientations
T11 chain: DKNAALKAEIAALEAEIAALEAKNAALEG

[12] = molecular target: T12, 4H3628-AA; assay: two-hybrid library CCmax; conditions: mean of both orientations
T12 chain: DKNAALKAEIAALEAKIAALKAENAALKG

[13] = molecular target: T13, 4H3666-AA; assay: two-hybrid library CCmax; conditions: mean of both orientations
T13 chain: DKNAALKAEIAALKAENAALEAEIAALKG

[14] = molecular target: T14, 4H3709-AA; assay: two-hybrid library CCmax; conditions: mean of both orientations
T14 chain: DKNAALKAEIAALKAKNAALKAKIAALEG

[15] = molecular target: T15, 4H391-AA; assay: two-hybrid library CCmax; conditions: mean of both orientations
T15 chain: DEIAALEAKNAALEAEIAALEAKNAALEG

[16] = molecular target: T16, 4H3920-AA; assay: two-hybrid library CCmax; conditions: mean of both orientations
T16 chain: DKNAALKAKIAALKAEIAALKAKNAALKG

[17] = molecular target: T17, 4H3939-AA; assay: two-hybrid library CCmax; conditions: mean of both orientations
T17 chain: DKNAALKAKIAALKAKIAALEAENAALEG

[18] = molecular target: T18, 4H428-AA; assay: two-hybrid library CCmax; conditions: mean of both orientations
T18 chain: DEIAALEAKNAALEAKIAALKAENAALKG

[19] = molecular target: T19, 4H478-AA; assay: two-hybrid library CCmax; conditions: mean of both orientations
T19 chain: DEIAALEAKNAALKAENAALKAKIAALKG

[20] = molecular target: T20, 4H497-AA; assay: two-hybrid library CCmax; conditions: mean of both orientations
T20 chain: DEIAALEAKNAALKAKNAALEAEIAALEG

[21] = molecular target: T21, 4H656-AA; assay: two-hybrid library CCmax; conditions: mean of both orientations
T21 chain: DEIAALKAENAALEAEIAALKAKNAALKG

[22] = molecular target: T22, 4H675-AA; assay: two-hybrid library CCmax; conditions: mean of both orientations
T22 chain: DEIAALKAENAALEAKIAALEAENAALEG

[23] = molecular target: T23, 4H971-AA; assay: two-hybrid library CCmax; conditions: mean of both orientations
T23 chain: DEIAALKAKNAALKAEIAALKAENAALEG

[24] = molecular target: T24, O8-bS; assay: two-hybrid library CCNG1
T24 chain: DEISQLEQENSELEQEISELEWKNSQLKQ

[25] = molecular target: T25, O9-bS; assay: two-hybrid library CCNG1
T25 chain: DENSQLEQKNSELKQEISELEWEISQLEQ

[26] = molecular target: T26, P9-AA; assay: two-hybrid library CCmax
T26 chain: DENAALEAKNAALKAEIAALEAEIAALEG

[27] = molecular target: T27, zCON9_A; assay: two-hybrid library CCmax
T27 chain: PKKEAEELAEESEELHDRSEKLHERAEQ

[28] = molecular target: T28, zCON9_B; assay: two-hybrid library CCmax
T28 chain: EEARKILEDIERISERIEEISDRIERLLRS

[29] = molecular target: T29, zCON9_D; assay: two-hybrid library CCmax
T29 chain: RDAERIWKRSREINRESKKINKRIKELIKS

[30] = molecular target: T30, P4-AA; assay: two-hybrid library CCmax
T30 chain: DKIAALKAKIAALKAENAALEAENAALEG

[31] = molecular target: T31, P7-AA; assay: two-hybrid library CCmax
T31 chain: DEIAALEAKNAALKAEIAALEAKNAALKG

[32] = molecular target: T32, P8-AA; assay: two-hybrid library CCmax
T32 chain: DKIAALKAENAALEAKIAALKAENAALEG

[33] = molecular target: T33, P3-AA; assay: two-hybrid library CCmax
T33 chain: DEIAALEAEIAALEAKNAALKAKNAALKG

[34] = molecular target: T34, 4H3613-bN; assay: two-hybrid library CCNG1
T34 chain: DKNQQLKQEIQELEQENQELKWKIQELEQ

[35] = molecular target: T35, 4H3628-bN; assay: two-hybrid library CCNG1
T35 chain: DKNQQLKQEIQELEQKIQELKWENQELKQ

[36] = molecular target: T36, 4H3817-bN; assay: two-hybrid library CCNG1
T36 chain: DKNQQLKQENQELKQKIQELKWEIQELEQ

[37] = molecular target: T37, 4H3858-bN; assay: two-hybrid library CCNG1
T37 chain: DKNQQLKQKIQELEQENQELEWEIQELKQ

[38] = molecular target: T38, 4H3926-bN; assay: two-hybrid library CCNG1
T38 chain: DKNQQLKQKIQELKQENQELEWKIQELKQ

[39] = molecular target: T39, 4H3974-bN; assay: two-hybrid library CCNG1
T39 chain: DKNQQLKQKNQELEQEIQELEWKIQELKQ

[40] = molecular target: T40, 4H570-bN; assay: two-hybrid library CCNG1
T40 chain: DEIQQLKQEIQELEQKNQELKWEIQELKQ

[41] = molecular target: T41, 4H591-bN; assay: two-hybrid library CCNG1
T41 chain: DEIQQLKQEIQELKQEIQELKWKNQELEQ

[42] = molecular target: T42, 4H626-bN; assay: two-hybrid library CCNG1
T42 chain: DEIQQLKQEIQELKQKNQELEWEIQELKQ

[43] = molecular target: T43, 4H850-bN; assay: two-hybrid library CCNG1
T43 chain: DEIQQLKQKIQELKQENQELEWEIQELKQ

[44] = molecular target: T44, 4H906-bN; assay: two-hybrid library CCNG1
T44 chain: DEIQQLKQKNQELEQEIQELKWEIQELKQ

[45] = molecular target: T45, P12-AA; assay: two-hybrid library CCmax
T45 chain: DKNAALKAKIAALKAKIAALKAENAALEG

[46] = molecular target: T46, P2-AA; assay: two-hybrid library CCmax
T46 chain: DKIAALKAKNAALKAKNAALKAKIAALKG

[47] = molecular target: T47, P11-AA; assay: two-hybrid library CCmax
T47 chain: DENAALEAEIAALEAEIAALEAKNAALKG

B1: 4H2713-AA (peptide)
chain: DKIAALKAENAALEAENAALKAEIAALEG
- interaction score [1]: 0.691
- interaction score [2]: -0.508
- interaction score [3]: -1.84
- interaction score [4]: -1.79
- interaction score [5]: 1.75
- interaction score [6]: 1.76
- interaction score [7]: -0.638
- interaction score [8]: -1.64
- interaction score [9]: -1.19
- interaction score [10]: -1.15
- interaction score [11]: -1.25
- interaction score [12]: -1.22
- interaction score [13]: -1.39
- interaction score [14]: -1.95
- interaction score [15]: -1.91
- interaction score [16]: -1.61
- interaction score [17]: -1.59
- interaction score [18]: -1.87
- interaction score [19]: 2.27
- interaction score [20]: 0.0354
- interaction score [21]: -1.66
- interaction score [22]: -1.83
- interaction score [23]: -1.57

B2: O8-bS (peptide)
chain: DEISQLEQENSELEQEISELEWKNSQLKQ
- interaction score [24]: -2.12
- interaction score [25]: -0.376

B3: P9-AA (peptide)
chain: DENAALEAKNAALKAEIAALEAEIAALEG
- interaction score [26]: -1.97
- interaction score [27]: -1.13
- interaction score [28]: -1.59
- interaction score ([29]; mean of both orientations): -1.94

B4: O9-bS (peptide)
chain: DENSQLEQKNSELKQEISELEWEISQLEQ
- interaction score ([25]; mean of both orientations): -1.16

B5: P4-AA (peptide)
chain: DKIAALKAKIAALKAENAALEAENAALEG
- interaction score [30]: -2.32
- interaction score ([31]; mean of both orientations): -1.41
- interaction score ([32]; mean of both orientations): -1.82
- interaction score ([26]; mean of both orientations): -1.18
- interaction score [27]: -1.68
- interaction score ([28]; mean of both orientations): -1.1
- interaction score ([29]; mean of both orientations): -3.43

B6: P3-AA (peptide)
chain: DEIAALEAEIAALEAKNAALKAKNAALKG
- interaction score [33]: -1.46
- interaction score ([30]; mean of both orientations): 2.28
- interaction score ([31]; mean of both orientations): -1.27
- interaction score ([32]; mean of both orientations): -0.983
- interaction score ([26]; mean of both orientations): -1.38
- interaction score [27]: -1.78
- interaction score ([28]; mean of both orientations): -1.33
- interaction score ([29]; mean of both orientations): -2.08

B7: 4H3613-bN (peptide)
chain: DKNQQLKQEIQELEQENQELKWKIQELEQ
- interaction score [34]: -0.839
- interaction score [35]: -1.69
- interaction score [36]: -0.783
- interaction score [37]: -0.655
- interaction score [38]: 0.45
- interaction score [39]: -1.53
- interaction score [40]: -0.737
- interaction score [41]: -0.893
- interaction score [42]: -1.98
- interaction score [43]: -0.0632
- interaction score [44]: -1.78

B8: P8-AA (peptide)
chain: DKIAALKAENAALEAKIAALKAENAALEG
- interaction score [32]: -1.57
- interaction score ([26]; mean of both orientations): -0.207
- interaction score [27]: -1.74
- interaction score ([28]; mean of both orientations): -1.66
- interaction score ([29]; mean of both orientations): -1.98

B9: P12-AA (peptide)
chain: DKNAALKAKIAALKAKIAALKAENAALEG
- interaction score [45]: -1.64
- interaction score ([46]; mean of both orientations): -1.74
- interaction score ([33]; mean of both orientations): 1.42
- interaction score ([30]; mean of both orientations): -1.68
- interaction score ([31]; mean of both orientations): -1.45
- interaction score ([32]; mean of both orientations): -1.95
- interaction score ([26]; mean of both orientations): 0.219
- interaction score [27]: -1.73
- interaction score ([28]; mean of both orientations): 0.333
- interaction score ([29]; mean of both orientations): -2.06

B10: P11-AA (peptide)
chain: DENAALEAEIAALEAEIAALEAKNAALKG
- interaction score [47]: -1.19
- interaction score ([45]; mean of both orientations): 1.97
- interaction score ([46]; mean of both orientations): 0.243
- interaction score ([33]; mean of both orientations): -1.5
- interaction score ([30]; mean of both orientations): 1.68
- interaction score ([31]; mean of both orientations): -1.07
- interaction score ([32]; mean of both orientations): -1.23
- interaction score ([26]; mean of both orientations): -1.18
- interaction score [27]: -1.48
- interaction score ([28]; mean of both orientations): -0.891
- interaction score [29]: -1.93

B11: P2-AA (peptide)
chain: DKIAALKAKNAALKAKNAALKAKIAALKG
- interaction score [46]: -0.878
- interaction score ([33]; mean of both orientations): -1.6
- interaction score ([30]; mean of both orientations): -0.357
- interaction score ([31]; mean of both orientations): -1.47
- interaction score ([32]; mean of both orientations): -1.37
- interaction score ([26]; mean of both orientations): -0.716
- interaction score ([27]; mean of both orientations): -1.98
- interaction score ([28]; mean of both orientations): 1.28
- interaction score ([29]; mean of both orientations): -2.05

B12: P7-AA (peptide)
chain: DEIAALEAKNAALKAEIAALEAKNAALKG
- interaction score [31]: -1.79
- interaction score ([32]; mean of both orientations): 1.87
- interaction score ([26]; mean of both orientations): -1.14
- interaction score [27]: -1.78
- interaction score ([28]; mean of both orientations): -1.46
- interaction score [29]: -1.95

— article PMC10397247
